This experiment concerns the target KRAS^G12D (UniProt P01116).

This is an account of results in article PMC12931925.

Chain of RBDCRD-NarX fusions (RAS-binding components of the RAS sensor, RBDCRD wild-type) (P0AFA2 whole entry, looked up, the tested form may be a part): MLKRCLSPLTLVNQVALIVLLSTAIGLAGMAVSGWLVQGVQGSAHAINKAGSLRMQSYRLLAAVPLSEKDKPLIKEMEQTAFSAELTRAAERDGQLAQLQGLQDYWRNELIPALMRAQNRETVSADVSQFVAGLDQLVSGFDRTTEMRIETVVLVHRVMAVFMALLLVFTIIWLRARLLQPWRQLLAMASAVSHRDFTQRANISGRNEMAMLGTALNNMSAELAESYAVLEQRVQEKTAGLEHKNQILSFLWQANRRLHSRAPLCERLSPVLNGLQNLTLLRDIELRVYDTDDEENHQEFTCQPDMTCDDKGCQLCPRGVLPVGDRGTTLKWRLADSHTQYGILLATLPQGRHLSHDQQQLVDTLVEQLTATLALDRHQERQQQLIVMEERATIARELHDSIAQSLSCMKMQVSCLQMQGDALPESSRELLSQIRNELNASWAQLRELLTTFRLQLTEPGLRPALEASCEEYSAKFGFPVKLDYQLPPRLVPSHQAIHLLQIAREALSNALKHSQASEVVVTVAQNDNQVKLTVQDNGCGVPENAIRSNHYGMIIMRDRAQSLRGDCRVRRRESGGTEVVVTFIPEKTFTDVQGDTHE

Regarding “RBDCRD-NarX fusions (RAS-binding components of the RAS sensor, RBDCRD wild-type) (from UniProt P0AFA2 379-598; P0AFA2 379-598)”, the increase in relative mCerulean output of the functional RAS sensor compared to 0 ng/well of KRAS^G12D plasmid (HEK293, Figure 2—figure supplement 2b) worked out at 14 fold.
